This is an account of results in patent publication CN115677859A (HEFEI HANKEMAB BIOTECHNOLOGY CO LTD; ANHUI ANKE …, dated 2023).

Assay [1] addresses T1, 人4-1BB全长, 表达于细胞 (CHO-K1/h4-1BB; HEK-293/NFκB-Luci/4-1BB) (human, UniProt Q07011 24-255).
T1 construct: also called 细胞表面人4-1BB抗原
As to the kind of experiment: flow cytometry on CHO-K1/h4-1BB cells.

Assay [2] concerns the target T2, 人4-1BB胞外段 (human 4-1BB extracellular domain, HEK293-expressed, Example 4) (human, UniProt Q07011 24-186).
T2 construct: also called 人4-1BB抗原; CD137
Kind of assay: ELISA, human 4-1BB ECD coated, anti-human IgG HRP. On the technique in general: ELISA stands for enzyme-linked immunosorbent assay.

The target of assay [3] is T3, 人PD-L1全长, 表达于CHO-K1细胞 (CHO-K1/hPD-L1; CHO-K1/PDL1/TCR) (human, UniProt Q9NZQ7 19-290).
T3 construct: Full-length human PD-L1 transfected into CHO-K1 cells; also called 细胞表面人PD-L1抗原
Kind of assay: flow cytometry on CHO-K1/hPD-L1 cells, anti-human FITC. For orientation: A flow cytometer gives signals particle by particle.

Assay [4] has as its target T3, 人PD-L1全长, 表达于CHO-K1细胞 (CHO-K1/hPD-L1; …). Kind of assay: flow cytometry on CHO-K1/hPD-L1 cells, 4-parameter logistic fit.
Assay [5] concerns the target T4, 人4-1BB胞外段, 带鼠Fc标签 (human 4-1BB extracellular domain with mouse Fc tag, Example 5) (human, UniProt Q07011 24-186).
T4 construct: also called 抗原人4-1BB; not shown: mouse Fc tag
Kind of assay: bridging ELISA: PD-L1-His coated, bispecific, then 4-1BB-mouse Fc, anti-mouse HRP.

Assay [6] concerns the target T5, 猴4-1BB胞外段 (monkey 4-1BB extracellular domain) (monkey (猴), UniProt Q07011 24-186 (human entry)).
T5 construct: also called 猴4-1BB抗原
T5 chain: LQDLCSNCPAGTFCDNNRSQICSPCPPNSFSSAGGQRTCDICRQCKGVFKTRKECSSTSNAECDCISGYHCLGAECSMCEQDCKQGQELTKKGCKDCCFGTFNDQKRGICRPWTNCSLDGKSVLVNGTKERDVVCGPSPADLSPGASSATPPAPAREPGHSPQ
Kind of assay: ELISA, monkey 4-1BB ECD coated, anti-human HRP.

In assay [7] the target is T6, 猴PD-L1胞外段 (monkey PD-L1 extracellular domain) (monkey (猴), UniProt Q9NZQ7 19-238 (human entry)).
T6 construct: also called 猴PD-L1抗原
As to the kind of experiment: ELISA, monkey PD-L1 ECD coated, anti-human HRP.

T3 sequence (Q9NZQ7 19-290 limits assumed): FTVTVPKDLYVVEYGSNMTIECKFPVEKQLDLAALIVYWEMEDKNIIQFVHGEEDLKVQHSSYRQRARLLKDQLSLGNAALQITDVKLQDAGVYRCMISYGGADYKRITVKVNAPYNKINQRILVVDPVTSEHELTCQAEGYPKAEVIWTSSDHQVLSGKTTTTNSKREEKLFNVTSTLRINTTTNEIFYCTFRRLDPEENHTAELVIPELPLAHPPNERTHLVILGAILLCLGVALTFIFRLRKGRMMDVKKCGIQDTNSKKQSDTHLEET
T1 sequence (Q07011 24-255 limits assumed): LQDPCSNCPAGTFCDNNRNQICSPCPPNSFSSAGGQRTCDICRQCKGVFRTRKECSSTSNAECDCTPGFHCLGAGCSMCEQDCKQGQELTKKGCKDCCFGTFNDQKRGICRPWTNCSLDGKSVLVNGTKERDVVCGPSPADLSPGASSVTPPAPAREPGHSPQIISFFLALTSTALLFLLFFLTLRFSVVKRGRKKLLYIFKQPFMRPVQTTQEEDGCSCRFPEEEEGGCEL
T6 sequence (Q9NZQ7 other isoform, or with tags, fused parts or gaps): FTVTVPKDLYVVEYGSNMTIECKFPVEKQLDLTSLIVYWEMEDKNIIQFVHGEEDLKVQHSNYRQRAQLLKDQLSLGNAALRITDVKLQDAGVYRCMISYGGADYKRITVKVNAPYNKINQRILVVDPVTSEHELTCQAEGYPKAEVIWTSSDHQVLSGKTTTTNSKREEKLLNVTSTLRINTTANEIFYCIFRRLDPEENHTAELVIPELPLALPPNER

B1: 抗人PD-L1/4-1BB双特异性抗体 结构B (anti-4-1BB scFv-(G4S)2-IgG4 Fc-(G4S)3-anti-PD-L1 Fab) (bispecific antibody)
heavy: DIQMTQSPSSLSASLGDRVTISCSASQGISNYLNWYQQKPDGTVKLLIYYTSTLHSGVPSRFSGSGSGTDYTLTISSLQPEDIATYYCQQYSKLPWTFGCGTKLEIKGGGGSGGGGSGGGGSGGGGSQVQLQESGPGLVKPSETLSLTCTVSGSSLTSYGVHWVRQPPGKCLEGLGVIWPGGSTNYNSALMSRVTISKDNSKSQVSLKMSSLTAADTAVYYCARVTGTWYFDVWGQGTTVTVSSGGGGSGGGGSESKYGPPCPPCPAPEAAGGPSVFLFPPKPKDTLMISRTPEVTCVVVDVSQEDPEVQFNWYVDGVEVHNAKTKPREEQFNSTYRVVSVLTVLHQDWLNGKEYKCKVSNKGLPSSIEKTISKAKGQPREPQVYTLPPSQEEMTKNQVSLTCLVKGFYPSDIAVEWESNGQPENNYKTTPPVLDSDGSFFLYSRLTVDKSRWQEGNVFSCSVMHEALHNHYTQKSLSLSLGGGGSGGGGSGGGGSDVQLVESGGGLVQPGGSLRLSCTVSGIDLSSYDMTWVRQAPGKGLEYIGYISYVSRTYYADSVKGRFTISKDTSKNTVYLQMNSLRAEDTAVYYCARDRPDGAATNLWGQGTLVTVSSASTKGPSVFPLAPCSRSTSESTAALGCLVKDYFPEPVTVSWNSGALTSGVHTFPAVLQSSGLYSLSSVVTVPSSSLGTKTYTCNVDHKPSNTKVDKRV
light: DIQMTQSPSTLSASVGDRVTITCQSSQNVYSNNRLSWYQQKPGKAPKLLIYWTSFLASGVPSRFSGSGSGTEFTLTISSLQPDDFATYYCAGGYSGNLYTFGQGTKLEIKRTVAAPSVFIFPPSDEQLKSGTASVVCLLNNFYPREAKVQWKVDNALQSGNSQESVTEQDSKDSTYSLSSTLTLSKADYEKHKVYACEVTHQGLSSPVTKSFNRGEC
notes: Two heavy and two light chains; human IgG4 Fc; also called B结构
For B1, in assay [1], the binding result was “binds”. In assay [2], the binding result is reported as “binds”. Further, in assay [3], the “FACS fluorescence signal at 0.308 nM (name of read-out not given)” value turned out to be 617, the “FACS fluorescence signal at 0.617 nM (name of read-out not given)” value was 889, the “FACS fluorescence signal at 1.851 nM (name of read-out not given)” value came to 1450 and the “FACS fluorescence signal at 5.555 nM (name of read-out not given)” value was determined as 4430. Further, in assay [3], the “FACS fluorescence signal at 16.666 nM (name of read-out not given)” value amounted to 8220 and the “FACS fluorescence signal at 50 nM (name of read-out not given)” value came to 8490. The molecule further gave an EC50 in assay [4] of 5.82 nM. Besides, in assay [5], the binding result was “binds”.

B2: 抗人PD-L1/4-1BB双特异性抗体 D6 (结构D, D2的突变体, linker (G4S)3) (bispecific antibody, human IgG4 S228P, kappa, F234A L235A)
heavy: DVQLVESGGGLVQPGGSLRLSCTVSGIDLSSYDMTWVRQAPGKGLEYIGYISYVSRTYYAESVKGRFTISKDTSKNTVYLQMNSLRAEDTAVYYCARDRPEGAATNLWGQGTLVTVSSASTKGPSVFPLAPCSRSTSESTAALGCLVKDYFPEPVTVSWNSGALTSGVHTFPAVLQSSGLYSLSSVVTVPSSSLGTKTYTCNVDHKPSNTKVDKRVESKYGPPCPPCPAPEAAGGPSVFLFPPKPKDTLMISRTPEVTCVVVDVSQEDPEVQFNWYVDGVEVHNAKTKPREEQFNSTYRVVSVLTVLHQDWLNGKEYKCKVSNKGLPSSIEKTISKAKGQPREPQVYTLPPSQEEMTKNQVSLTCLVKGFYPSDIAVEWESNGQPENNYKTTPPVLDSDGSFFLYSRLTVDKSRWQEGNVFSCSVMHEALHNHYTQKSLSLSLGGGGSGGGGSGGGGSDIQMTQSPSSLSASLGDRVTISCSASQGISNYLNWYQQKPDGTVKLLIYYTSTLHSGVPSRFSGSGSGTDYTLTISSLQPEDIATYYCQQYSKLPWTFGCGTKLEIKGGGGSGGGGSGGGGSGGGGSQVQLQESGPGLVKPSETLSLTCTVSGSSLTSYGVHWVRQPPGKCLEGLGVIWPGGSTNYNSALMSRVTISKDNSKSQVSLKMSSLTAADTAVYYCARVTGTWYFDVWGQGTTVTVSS
light: DIQMTQSPSTLSASVGDRVTITCQSSQNVYSNNRLSWYQQKPGKAPKLLIYWTSFLASGVPSRFSGSGSGTEFTLTISSLQPDDFATYYCAGGYSGNLYTFGQGTKLEIKRTVAAPSVFIFPPSDEQLKSGTASVVCLLNNFYPREAKVQWKVDNALQSGNSQESVTEQDSKDSTYSLSSTLTLSKADYEKHKVYACEVTHQGLSSPVTKSFNRGEC
notes: Anti-PD-L1 IgG4 with an anti-4-1BB scFv at the C-terminus of each heavy chain
For B2, the binding result in assay [1] is on record as “binds”. Moreover, the binding result in assay [6] is on record as “binds”. In addition, in assay [7], the binding result is given as “binds”. Further, the binding result in assay [2] was “binds”. Besides, in assay [3], the “FACS fluorescence signal at 0.308 nM (name of read-out not given)” value worked out at 516, the “FACS fluorescence signal at 0.617 nM (name of read-out not given)” value was 654, the “FACS fluorescence signal at 1.851 nM (name of read-out not given)” value is 1190 and the “FACS fluorescence signal at 5.555 nM (name of read-out not given)” value was 2950. For the same molecule, in assay [3], the “FACS fluorescence signal at 16.666 nM (name of read-out not given)” value came out at 8400 and the “FACS fluorescence signal at 50 nM (name of read-out not given)” value is 8920. Further, in assay [4], the EC50 turned out to be 7.6 nM. Also, the binding result in assay [5] is given as “binds”.

B3: 抗人PD-L1/4-1BB双特异性抗体 D3 (结构D, D1的突变体, linker A(EAAAK)4ALE) (bispecific antibody, human IgG4 S228P, kappa, F234A L235A)
heavy: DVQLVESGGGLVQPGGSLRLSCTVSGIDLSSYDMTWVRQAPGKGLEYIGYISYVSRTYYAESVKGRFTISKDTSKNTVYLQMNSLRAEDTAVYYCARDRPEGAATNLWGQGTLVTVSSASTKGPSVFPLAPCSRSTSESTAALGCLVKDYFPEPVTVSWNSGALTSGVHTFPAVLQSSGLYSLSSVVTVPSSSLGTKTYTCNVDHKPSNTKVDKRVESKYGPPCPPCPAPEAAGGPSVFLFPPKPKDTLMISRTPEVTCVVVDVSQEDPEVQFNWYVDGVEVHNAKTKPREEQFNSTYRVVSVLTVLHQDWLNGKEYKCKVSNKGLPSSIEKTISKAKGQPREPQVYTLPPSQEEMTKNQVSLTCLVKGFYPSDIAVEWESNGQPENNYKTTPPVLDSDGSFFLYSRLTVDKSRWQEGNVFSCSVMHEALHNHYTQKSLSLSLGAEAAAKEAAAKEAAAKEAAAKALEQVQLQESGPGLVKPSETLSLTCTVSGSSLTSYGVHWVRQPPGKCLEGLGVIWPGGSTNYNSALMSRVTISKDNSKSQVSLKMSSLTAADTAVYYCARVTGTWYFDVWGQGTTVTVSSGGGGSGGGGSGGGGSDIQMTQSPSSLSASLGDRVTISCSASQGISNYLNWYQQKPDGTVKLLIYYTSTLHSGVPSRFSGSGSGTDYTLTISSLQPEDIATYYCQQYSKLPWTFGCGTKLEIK
light: DIQMTQSPSTLSASVGDRVTITCQSSQNVYSNNRLSWYQQKPGKAPKLLIYWTSFLASGVPSRFSGSGSGTEFTLTISSLQPDDFATYYCAGGYSGNLYTFGQGTKLEIKRTVAAPSVFIFPPSDEQLKSGTASVVCLLNNFYPREAKVQWKVDNALQSGNSQESVTEQDSKDSTYSLSSTLTLSKADYEKHKVYACEVTHQGLSSPVTKSFNRGEC
notes: as for B2
In the case of B3, in assay [3], the “FACS fluorescence signal at 0.308 nM (name of read-out not given)” value turned out to be 543, the “FACS fluorescence signal at 0.617 nM (name of read-out not given)” value was found to be 708, the “FACS fluorescence signal at 1.851 nM (name of read-out not given)” value is 1390 and the “FACS fluorescence signal at 5.555 nM (name of read-out not given)” value turned out to be 3820. Moreover, in assay [3], the “FACS fluorescence signal at 16.666 nM (name of read-out not given)” value was 8710 and the “FACS fluorescence signal at 50 nM (name of read-out not given)” value amounted to 8870. In assay [4], this molecule displayed an EC50 of 6.59 nM.

By EC50 is commonly meant the concentration at which the effect is half-maximal.
